Measured values published in patent US20170081400A1 (CEPHALON, published 2017).
Changes are numbered by the printed parent chain. Values belong to the binder of their own block, whether it stands above or below them.

Legend:
[1] = target: T1, human TL1A extracellular domain with N-terminal HIS and FLAG tag (human) (UniProt O95150); test: cell-based or functional assay
T1 sequence: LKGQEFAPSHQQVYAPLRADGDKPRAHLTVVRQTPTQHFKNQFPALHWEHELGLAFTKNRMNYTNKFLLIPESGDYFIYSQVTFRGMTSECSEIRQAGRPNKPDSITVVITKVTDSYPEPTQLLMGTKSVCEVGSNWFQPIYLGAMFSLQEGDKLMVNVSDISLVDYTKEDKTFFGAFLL

[2] = target: T2, human TL1A extracellular domain with N-terminal HIS and FLAG tag (human, UniProt O95150 72-251); test: SPR Run 6, purified Ab captured on Protein A, TL1A 5 ug/mL, timepoint 44
T2 construct: the whole entry is named
T2 sequence: T1 sequence
From the text: (§1) 1.5. Antibody expression and antigen binding as determined by SPR. Using a CM5 sensor chip (GE Healthcare) Protein A (Pierce) was coupled to the chip surface using an amine coupling kit (GE Healthcare). Protein A was coupled on flow cell 1 and 2 (or alternatively 3 and 4) using a BIACORE® T200. […] The amount of supernatant or purified protein (as well as the concentration) injected during the capture stage varied between runs and is specified in the header of the Tables 3-11. At the end of injection of the supernatant or purified antibody the change in response units was measured. This value was reported as Capture Level in Tables 3-11. […] The response units were measured prior to the end of the dissociation phase. […] The sensorgrams were double referenced (flow cell 2 is subtracted from flow cell 1 and a buffer blank). As there were a large number of antibody variants to screen, these were screened across different runs (Tables 3-11). […] A summary of the conditions used in each run is below:
(§2) 2.1. […] In some experiment the antibodies were purified using Protein A chromatography (See 1.4) and purified antibodies were used in BIACORE® (GE Healthcare) experiments.

[3] = target: T2, human TL1A extracellular domain with …; test: SPR Run 6, purified Ab captured on Protein A, TL1A 5 ug/mL, timepoint 170
From the text: as §1, §2

B1: 320-443 (antibody, human IgG1, name in Kabat numbering, V domains shown)
VH: QVQLVQSGAEVKKPGASVKVSCKASGYTFTSKDINWVRQAPGQGLEWMGWLNPNSGNTGYAQKFQGRVTMTADRSTSTAYMELSSLRSEDTAVYYCAREVPETAAFEYWGQGTLVTVSS
VL: QSVLTQPPSVSGAPGQRVTISCTSSSSDIGAGLGVHWYQQLPGTAPKLLIEGYYNRPSGVPDRFSGSKSGTSASLTITGLLPEDEGDYYCQSYDGTLSALFGGGTKLTVLG
notes: human IgG1, lambda
Antibody IC50, TL1A induced caspase potency assay in TF-1 cells [1]: 0.06 µg/mL
Fold improvement over 320-179, TL1A induced caspase potency assay in TF-1 cells [1]: 1 fold
TL1A Binding Level (Early) [2]: 114 RU
TL1A Binding Level (Late) [3]: 103 RU

B2: 320-462 (antibody, human IgG1, name in Kabat numbering, V domains shown)
VH: B1 VH with K32Y, I34Y
VL: B1 VL
notes: human IgG1, lambda
TL1A Binding Level (Early) [2]: 58 RU
TL1A Binding Level (Late) [3]: 52 RU

B5: 320-458 (antibody, human IgG1, name in Kabat numbering, V domains shown)
VH: B1 VH with K32Y, I34H
VL: B1 VL
notes: human IgG1, lambda
TL1A Binding Level (Early) [2]: 59 RU
TL1A Binding Level (Late) [3]: 53 RU

B8: 320-463 (antibody, human IgG1, name in Kabat numbering, V domains shown)
VH: B1 VH with K32Y, N35A
VL: B1 VL
notes: human IgG1, lambda
Antibody IC50, TL1A induced caspase potency assay in TF-1 cells [1]: 0.02 µg/mL
Fold improvement over 320-179, TL1A induced caspase potency assay in TF-1 cells [1]: 3 fold
TL1A Binding Level (Early) [2]: 102 RU
TL1A Binding Level (Late) [3]: 101 RU

B13: 320-453 (antibody, human IgG1, name in Kabat numbering, V domains shown)
VH: B1 VH with K32Y, D33Y
VL: B1 VL
notes: human IgG1, lambda
TL1A Binding Level (Early) [2]: 111 RU
TL1A Binding Level (Late) [3]: 104 RU

B14: 320-454 (antibody, human IgG1, name in Kabat numbering, V domains shown)
VH: B1 VH with K32Y, I34A
VL: B1 VL
notes: human IgG1, lambda
TL1A Binding Level (Early) [2]: 43 RU
TL1A Binding Level (Late) [3]: 37 RU

B15: 320-452 (antibody, human IgG1, name in Kabat numbering, V domains shown)
VH: B1 VH with K32Y, D33W
VL: B1 VL
notes: human IgG1, lambda
TL1A Binding Level (Early) [2]: 84 RU
TL1A Binding Level (Late) [3]: 78 RU

B16: 320-480 (antibody, human IgG1, name in Kabat numbering, V domains shown)
VH: B1 VH with K32Y, A61Y
VL: B1 VL
notes: human IgG1, lambda
TL1A Binding Level (Early) [2]: 79 RU
TL1A Binding Level (Late) [3]: 73 RU

B17: 320-459 (antibody, human IgG1, name in Kabat numbering, V domains shown)
VH: B1 VH with K32Y, I34K
VL: B1 VL
notes: human IgG1, lambda
TL1A Binding Level (Early) [2]: 20 RU
TL1A Binding Level (Late) [3]: 17 RU

B18: 320-445 (antibody, human IgG1, name in Kabat numbering, V domains shown)
VH: B1 VH with K32W
VL: B1 VL
notes: human IgG1, lambda
Antibody IC50, TL1A induced caspase potency assay in TF-1 cells [1]: 0.03 µg/mL
Fold improvement over 320-179, TL1A induced caspase potency assay in TF-1 cells [1]: 2 fold
TL1A Binding Level (Early) [2]: 116 RU
TL1A Binding Level (Late) [3]: 106 RU

B21: 320-473 (antibody, human IgG1, name in Kabat numbering, V domains shown)
VH: B1 VH with K32Y
VL: B1 VL with Y93D
notes: human IgG1, lambda
TL1A Binding Level (Early) [2]: 69 RU
TL1A Binding Level (Late) [3]: 55 RU

B22: 320-476 (antibody, human IgG1, name in Kabat numbering, V domains shown)
VH: B1 VH with Y27K, K32Y
VL: B1 VL
notes: human IgG1, lambda
TL1A Binding Level (Early) [2]: 128 RU
TL1A Binding Level (Late) [3]: 118 RU

B26: 320-466 (antibody, human IgG1, name in Kabat numbering, V domains shown)
VH: B1 VH with K32Y, N35D
VL: B1 VL
notes: human IgG1, lambda
TL1A Binding Level (Early) [2]: 93 RU
TL1A Binding Level (Late) [3]: 86 RU

Continued, values first:

TL1A Binding Level (Early) [2]: 92 RU
TL1A Binding Level (Late) [3]: 78 RU
B3: 320-465 (antibody, human IgG1, name in Kabat numbering, V domains shown)
VH: B1 VH with K32Y, N35Q
VL: B1 VL
notes: human IgG1, lambda

TL1A Binding Level (Early) [2]: 44 RU
TL1A Binding Level (Late) [3]: 24 RU
B4: 320-467 (antibody, human IgG1, name in Kabat numbering, V domains shown)
VH: B1 VH with K32Y, N35H
VL: B1 VL
notes: human IgG1, lambda

TL1A Binding Level (Early) [2]: 61 RU
TL1A Binding Level (Late) [3]: 54 RU
B6: 320-479 (antibody, human IgG1, name in Kabat numbering, V domains shown)
VH: B1 VH with K32Y, A61W
VL: B1 VL
notes: human IgG1, lambda

TL1A Binding Level (Early) [2]: 52 RU
TL1A Binding Level (Late) [3]: 46 RU
B7: 320-456 (antibody, human IgG1, name in Kabat numbering, V domains shown)
VH: B1 VH with K32Y, I34Q
VL: B1 VL
notes: human IgG1, lambda

TL1A Binding Level (Early) [2]: 23 RU
TL1A Binding Level (Late) [3]: 10 RU
B9: 320-472 (antibody, human IgG1, name in Kabat numbering, V domains shown)
VH: B1 VH with K32Y
VL: B1 VL with S92L
notes: human IgG1, lambda

TL1A Binding Level (Early) [2]: 85 RU
TL1A Binding Level (Late) [3]: 76 RU
B10: 320-491 (antibody, human IgG1, name in Kabat numbering, V domains shown)
VH: B1 VH with K32Y, L51S
VL: B1 VL
notes: human IgG1, lambda

TL1A Binding Level (Early) [2]: 69 RU
TL1A Binding Level (Late) [3]: 61 RU
B11: 320-469 (antibody, human IgG1, name in Kabat numbering, V domains shown)
VH: B1 VH with K32Y, N35L
VL: B1 VL
notes: human IgG1, lambda

TL1A Binding Level (Early) [2]: 14 RU
TL1A Binding Level (Late) [3]: 8 RU
B12: 320-490 (antibody, human IgG1, name in Kabat numbering, V domains shown)
VH: B1 VH with K32Y, W50Y
VL: B1 VL
notes: human IgG1, lambda

TL1A Binding Level (Early) [2]: 27 RU
TL1A Binding Level (Late) [3]: 23 RU
B19: 320-455 (antibody, human IgG1, name in Kabat numbering, V domains shown)
VH: B1 VH with K32Y, I34S
VL: B1 VL
notes: human IgG1, lambda

TL1A Binding Level (Early) [2]: 85 RU
TL1A Binding Level (Late) [3]: 77 RU
B20: 320-478 (antibody, human IgG1, name in Kabat numbering, V domains shown)
VH: B1 VH with K32Y, A61L
VL: B1 VL
notes: human IgG1, lambda

Antibody IC50, TL1A induced caspase potency assay in TF-1 cells [1]: 0.03 µg/mL
Fold improvement over 320-179, TL1A induced caspase potency assay in TF-1 cells [1]: 2 fold
TL1A Binding Level (Early) [2]: 130 RU
TL1A Binding Level (Late) [3]: 124 RU
B23: 320-464 (antibody, human IgG1, name in Kabat numbering, V domains shown)
VH: B1 VH with K32Y, N35S
VL: B1 VL
notes: human IgG1, lambda

TL1A Binding Level (Early) [2]: 114 RU
TL1A Binding Level (Late) [3]: 105 RU
B24: 320-460 (antibody, human IgG1, name in Kabat numbering, V domains shown)
VH: B1 VH with K32Y, I34L
VL: B1 VL
notes: human IgG1, lambda

TL1A Binding Level (Early) [2]: 19 RU
TL1A Binding Level (Late) [3]: 8 RU
B25: 320-451 (antibody, human IgG1, name in Kabat numbering, V domains shown)
VH: B1 VH with K32Y, D33L
VL: B1 VL
notes: human IgG1, lambda

TL1A Binding Level (Early) [2]: 87 RU
TL1A Binding Level (Late) [3]: 82 RU
B27: 320-461 (antibody, human IgG1, name in Kabat numbering, V domains shown)
VH: B1 VH with K32Y, I34W
VL: B1 VL
notes: human IgG1, lambda
